Assay results: the supplement of paper PMC9170038

Test system: MS2 coat protein
Experiment: apparent KD of MS2 coat protein; designed switch direction (-1 OFF switch, 1 ON switch): -1; higher = weaker reporter binding
Summary of the method: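 Designed RNA switches sharing common flanks were transcribed on Illumina chips by stalled E. coli RNA polymerase. They were titrated with SNAP-549-labelled MS2 coat protein, from 0.7 or 1.5 nM doubling to 3 µM, in Tris-HCl pH 7.5 buffer with KCl, MgCl2, BSA, DTT, tRNA and Tween-20. Titrations ran without input, with 200 uM small-molecule ligand, or with an oligonucleotide input. The apparent KD of each design is the median over its clusters, after curve-fitting of normalised cluster fluorescence.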

[1] = Eterna round: R95, input ligand: microRNA oligo, concentration not stated
[2] = Eterna round: R95, input ligand: FMN 200 uM
[3] = Eterna round: R95, input ligand: none

| Sequence | apparent KD of MS2 coat protein (input ligand: FMN 200 uM) [nM] | apparent KD of MS2 coat protein (input ligand: none) [nM] | apparent KD of MS2 coat protein [1] [nM] | apparent KD of MS2 coat protein [2] [nM] | apparent KD of MS2 coat protein [3] [nM] | apparent KD of MS2 coat protein (input ligand: microRNA oligo, concentration not stated) [nM] |
| --- | --- | --- | --- | --- | --- | --- |
| AGGUGUAGAGGAUAUACUGCAAAGCACAUGAGGAUCACCCAUGUCCCUCUAUGAGAUUAAGUAGAAGGCUACACCA [Omei Ex5 C4] (Eterna round: R97, puzzle: Exclusion 5) | 55.7 | 49.9 |  |  |  |  |
| AGGUGUAGAGGAUAUUUAUACUCCCACAUGAGGAUCACCCAUGUCCUGGUCACCAAGGACGGAGAAGGCUACACCA [Omei Ex5 D23] (Eterna round: R97, puzzle: Exclusion 5) | 48.5 | 41.8 |  |  |  |  |
| AGUAACAGAGGAUAUACUAUUUUAUGUGUUUGUUGUUUUAAACAUGAGGAUCACCCAUGUAGAAGGCUGAAUAA [JMF 88] (puzzle: Exclusion 2) |  |  | 19 |  |  |  |
| AGUAACAGAGGAUAUACUGUUUUAUGUAUUUAUUAUUUUAAACAUGAGGAUCACCCAUGUAGAAGGCUGAAUAA [JMF 81] (puzzle: Exclusion 2) |  |  | 17.5 |  |  |  |
| AGUAACAGAGGAUAUACUGUUUUAUGUGUUUAUUAUUUUGAACAUGAGGAUCACCCAUGUAGAAGGCUGAAUAA [JMF 90] (puzzle: Exclusion 2) |  |  | 21.8 |  |  |  |
| AGUAACCGUCACGAAAGUGAUGGUUACACAAGUAAAUGUACAUGAGGAUCACCCAUGUCCUCAUUUGCUCGUCUUAU [Sensor 3 - 46] (puzzle: Sensor v3, turn-off variant 2) |  |  | 373 | 152 | 230 |  |
| AGUAACCGUCACGAAAGUGAUGGUUACGCAAGUAAAUGUACAUGAGGAUCACCCAUGUCCUCAAUUGCUCGUCUUAU [Sensor 3 - 52] (puzzle: Sensor v3, turn-off variant 2) |  |  | 167 | 663 | 623 |  |
| AGUAACUAUCACGAAAGUGAUAGUUACAAAACAAGUGAAACAUGAGGAUCACCCAUGUCCUCACUUGCUCGUCUUAU [Sensor 3 - 5] (puzzle: Sensor v3, turn-off variant 2) |  |  | 128 | 14.2 | 13.4 |  |
| AGUAACUAUCACGAAAGUGAUAGUUACAAAAGCAGUGAAACAUGAGGAUCACCCAUGUCCUCAUUUGCUCGUCUUAU [Sensor 3 - 24] (puzzle: Sensor v3, turn-off variant 2) |  |  | 576 | 53.4 | 66.5 |  |
| AGUAACUAUCACGAAAGUGAUAGUUACACAAGCAGUGGAACAUGAGGAUCACCCAUGUCCUCAUUUGCUCGUCUUAU [Sensor 3 - 27] (puzzle: Sensor v3, turn-off variant 2) |  |  | 19.6 | 35.5 | 42.2 |  |
| AGUACUAACACGAAAGUGUUAGUACAAAUGAGCUUUUGAACAUGAGGAUCACCCAUGUCCUCAUAAGCUCGUCUUAA [Mat - Sensor v2 - var 2 - Mod - D174] (Eterna round: R96, puzzle: Sensor v2, turn-off variant 2) | 27.4 | 32.2 |  |  |  | 408 |
| AGUACUAACACGAAAGUGUUAGUACAAUAAGCUUGUGAAACAUGAGGAUCACCCAUGUCCUCAUACGCUCGUCUUAU [salish99_TOv2_r3_055] (puzzle: Sensor v3, turn-off variant 2) |  |  | 789 | 500 | 655 |  |
| AGUACUAACACGAAAGUGUUAGUACAAUAAGCUUGUGAAACAUGAGGAUCACCCAUGUCCUCAUAUGCUCGUCUUAU [salish99_TOv2_r3_053] (puzzle: Sensor v3, turn-off variant 2) |  |  | 822 | 471 | 641 |  |
| AGUACUAACACGAAAGUGUUAGUACAAUAAGCUUGUGAAACAUGAGGAUCACCCAUGUCCUCAUCAGCUCGUCUUAU [salish99_TOv2_r3_052] (puzzle: Sensor v3, turn-off variant 2) |  |  | 409 | 124 | 191 |  |
| AGUACUAACACGAAAGUGUUAGUACAAUAAGCUUGUGAAACAUGAGGAUCACCCAUGUCCUCUUAAGCUCGUCUUAU [salish99_TOv2_r3_047] (puzzle: Sensor v3, turn-off variant 2) |  |  | 329 | 116 | 124 |  |
| AGUACUAACACGAAAGUGUUAGUACAAUAAGCUUGUGUUACAUGAGGAUCACCCAUGUCCUCAUAAGCUCGUCUUAU [JL-sv3-2.14 mat747 mod] (puzzle: Sensor v3, turn-off variant 2) |  |  | 48.5 | 100 | 98.1 |  |
| AGUACUAACACGAAAGUGUUAGUACCAUAAGCUUGUGAAACAUGAGGAUCACCCAUGUCCUCAUAAGCUCGUCUUAU [salish99_TOv2_r3_041] (puzzle: Sensor v3, turn-off variant 2) |  |  | 720 | 18.8 | 19.5 |  |
